According to patent US20180360992A1 (PRECIGEN, published 2018):

Target: the molecule itself
Assay: native-PAGE/immunoblot of conditioned media of transfected 293T cells; self-association (homodimer)

B1: S100A1 with C-terminal fp2a-cleaved linker tail (2A tail), as cleaved from lead dual-gene and triple-gene constructs (other)
chain: MGSELETAMETLINVFHAHSGKEGDKYKLSKKELKELLQTELSGFLDAQKDVDAVDKVMKELDENGDGEVDFQEYVVLVAALTVACNNFFWENSRAKRAPVKQGSGATNFSLLKQAGDVEENPG
notes: Homodimer seen by native PAGE and immunoblot; also called S100A1 with 2A tail
B1: binds.
